The labels stand for the following.
B4: protein encoded by new clone number 10, partial NIK (NIK 624-947) (two-hybrid prey, GAL4 activation domain fusion) (enzyme, not shown: large carriers)
chain: PLTAQAIQEGLRKEPIHRVSAAELGGKVNRALQQVGGLKSPWRGEYKEPRHPPPNQANYHQTLHAQPRELSPRAPGPRPAEETTGRAPKLQPPLPPEPPEPNKSPPLTLSKEESGMWEPLPLSSLEPAPARNPSSPERKATVPEQELQQLEIELFLNSLSQPFSLEEQEQILSCLSIDSLSLSDDSEKNPSKASQSSRDTLSSGVHSWSSQAEARSSSWNMVLARGRPTDTPSYFNGVKVQIQSLNGEHLHIREFHRVKVGDIATGISSQIPAAAFSLVTKDGQPVRYDMEVPDSGIDLQCTLAPDGSFAWSWRVKHGQLENRP
notes: also called clone 10; NMPI

The target of assay [1] is full-length NIK (NF-kB inducing kinase) (human, UniProt Q99558 1-947). The assay is described as follows: yeast two-hybrid (results not shown).
Assay [2] deals with B4. In words: yeast two-hybrid, TRAF2 222-501 as bait. The source says: (§1) In order to narrow down the region on TRAF2 molecule which interact with clones 9, 10 and 15, two additional constructs were made. One construct comprised of the N-terminal part of the TRAF2 molecule, amino-acids 1 to 221, that included the Ring finger and the zinc finger motifs. The second construct included only the C-terminal part of the molecule, amino acids 222 to 501, covering the "TRAF-domain" and additional 42 amino acids. These two constructs were served as baits in two hybrid tests.

The target in assay [3] is T1, human TRAF2 in pGBT9 vector in conjunction with GAL4 DNA binding domain (two-hybrid bait) (human, UniProt P04386 1-147 (Saccharomyces cerevisiae entry)).
T1 construct: Cloned by PCR from the first methionine to the stop codon; a short linker from the BamHI primer between GAL4 domain and TRAF2 is not spelled out; also called hTRAF2; full length TRAF2 molecule
In words: yeast two-hybrid with TRAF2 bait, lacZ (beta-galactosidase) colour development time. Here is the method: Positive clones picked up in the two hybrid screen were subjected to lacZ color development test in SFY526 yeast cells, following Clontech Laboratories' manual (for details see above mentioned publications and patent applications). In brief, transformants were allowed to grow at 30° C. for 2-4 days until reaching about 2 mm in diameter, then were transferred onto Whatman filters. The filters went through a freeze/thaw treatment in order to permeabilize the cells, then soaked in a buffer (16.1 mg/ml Na_2HPO_4.7H_2O; 5.5 mg/ml NaH_2PO_4.H_2O; 0.75 mg/ml KCl; 0.75 mg/ml MgSO_4.7H_2O, pH=7) containing 0.33 mg/ml X-gal and 0.35 mM β-mercaptoethanol. Colonies were monitored for development of blue color which is an indication for induction of β-galactosidase.
The screen yielded approximately 2000 clones which were able to grow on Trp-, Leu-, His-3AT plates. DNA prepared from 165 randomly selected positive clones served for transient co-transfection of SFY526 yeast strain together with TRAF2 cloned into pGBT9 vector. Assay for β-galactosidase activity was performed on the transformed SFY526 yeast colonies as described in Materials and Methods (v). The blue color that developed was an indication for yeast colonies that contain cDNA encoding a protein or polypeptide that binds to TRAF2.

The target of assay [4] is B4. The assay is described as follows: yeast two-hybrid specificity test with irrelevant baits.
For assay [5], the target named is B4. The assay is described as follows: yeast two-hybrid, TRAF2 1-221 as bait.
From the text: as §1

B1: intracellular domain of the FAS/APO1 (CD95 receptor) (receptor, UniProt P25445 191-335, looked up)
chain: KRKEVQKTCRKHRKENQGSHESPTLNPETVAINLSDVDLSKYITTIAGVMTLSQVKGFVRKNGVNEAKIDEIKNDNVQDTAEQKVQLLRNWHQLHGKKEAYDTLIKDLKKANLCTLAEKIQTIILKDITSDSENSNFRNEIQSLV
notes: domain: intracellular domain; Two-hybrid construct
As to B1, the binding result in assay [1] was “no binding”.

B2: TRAF3 (other, UniProt Q13114 1-568, looked up)
chain: MESSKKMDSPGALQTNPPLKLHTDRSAGTPVFVPEQGGYKEKFVKTVEDKYKCEKCHLVLCSPKQTECGHRFCESCMAALLSSSSPKCTACQESIVKDKVFKDNCCKREILALQIYCRNESRGCAEQLMLGHLLVHLKNDCHFEELPCVRPDCKEKVLRKDLRDHVEKACKYREATCSHCKSQVPMIALQKHEDTDCPCVVVSCPHKCSVQTLLRSELSAHLSECVNAPSTCSFKRYGCVFQGTNQQIKAHEASSAVQHVNLLKEWSNSLEKKVSLLQNESVEKNKSIQSLHNQICSFEIEIERQKEMLRNNESKILHLQRVIDSQAEKLKELDKEIRPFRQNWEEADSMKSSVESLQNRVTELESVDKSAGQVARNTGLLESQLSRHDQMLSVHDIRLADMDLRFQVLETASYNGVLIWKIRDYKRRKQEAVMGKTLSLYSQPFYTGYFGYKMCARVYLNGDGMGKGTHLSLFFVIMRGEYDALLPWPFKQKVTLMLMDQGSSRRHLGDAFKPDPNSSSFKKPTGEMNIASGCPVFVAQTVLENGTYIKDDTIFIKVIVDTSDLPDP
notes: Two-hybrid construct
In the case of B2, in assay [1], the binding result is reported as “no binding”.

B3: construct of the C-terminal part of the TRAF2 molecule, amino acids 222 to 501 (two-hybrid bait) (other)
chain: GCLETVEGEKQQEHEVQWLREHLAMLLSSVLEAKPLLGDQSHAGSELLQRCESLEKKTATFENIVCVLNREVERVAMTAEACSRQHRLDQDKIEALSSKVQQLERSIGLKDLAMADLEQKVLEMEASTYDGVFIWKISDFARKRQEAVAGRIPAIFSPAFYTSRYGYKMCLRIYLNGDGTGRGTHLSLFFVVMKGPNDALLRWPFNQKVTLMLLDQNNREHVIDAFRPDVTSSSFQRPVNDMNIASGCPLFCPVSKMEAKNSYVRDDAIFIKAIVDLTGL
notes: Covers the TRAF-domain and additional 42 amino acids; served as bait in two hybrid tests (fusion partner not spelled out for this construct); also called TRAF2 222-501; C-terminal construct comprising the TRAF domain
Consider B3, for which the binding result in assay [2] is on record as “binds”.
With B4, the “Color test” value in assay [3] is 15 min.

B5: intracellular domain of the p75 TNF receptor (receptor, UniProt P20333 288-461, looked up)
chain: KKKPLCLQREAKVPHLPADKARGTQGPEQQHLLITAPSSSSSSLESSASALDRRAPTRNQPQAPGVEASGAGEARASTGSSDSSPGGHGTQVNVTCIVNVCSSSDHSSQCSSQASSTMGDTDSSPSESPKDEQVPFSKEECAFRSQLETPETLLGSTEEKPLPLGVPDAGMKPS
notes: domain: intracellular domain; Two-hybrid construct; also called p75-IC
On to B5, for which the binding result in assay [1] and in assay [4] was “no binding” throughout.

B6: MORT1 (other, UniProt Q13158 1-208, looked up)
chain: MDPFLVLLHSVSSSLSSSELTELKFLCLGRVGKRKLERVQSGLDLFSMLLEQNDLEPGHTELLRELLASLRRHDLLRRVDDFEAGAAAGAAPGEEDLCAAFNVICDNVGKDWRRLARQLKVSDTKIDSIEDRYPRNLTERVRESLRIWKNTEKENATVAHLVGALRSCQMNLVADLVQEVQQARDLQNRSGAMSPMSWNSDASTSEAS
notes: Two-hybrid construct; also called FADD; MORT1/FADD
Consider B6, for which the binding result in assay [1] and in assay [4] was “no binding” in each case.

B7: TRADD (other, UniProt Q15628 1-312, looked up)
chain: MAAGQNGHEEWVGSAYLFVESSLDKVVLSDAYAHPQQKVAVYRALQAALAESGGSPDVLQMLKIHRSDPQLIVQLRFCGRQPCGRFLRAYREGALRAALQRSLAAALAQHSVPLQLELRAGAERLDALLADEERCLSCILAQQPDRLRDEELAELEDALRNLKCGSGARGGDGEVASAPLQPPVPSLSEVKPPPPPPPAQTFLFQGQPVVNRPLSLKDQQTFARSVGLKWRKVGRSLQRGCRALRDPALDSLAYEYEREGLYEQAFQLLRRFVQAEGRRATLQRLVEALEENELTSLAEDLLGLTDPNGGLA
notes: Two-hybrid construct
Turning to B7, in assay [1], the binding result is listed as “no binding”.

B8: TRAF2 cDNA clones picked from the human B-cell library (two-hybrid prey, GAL4 activation domain fusion) (other, not shown: large carriers)
chain: MAAASVTPPGSLELLQPGFSKTLLGTKLEAKYLCSACRNVLRRPFQAQCGHRYCSFCLASILSSGPQNCAACVHEGIYEEGISILESSSAFPDNAARREVESLPAVCPSDGCTWKGTLKEYESCHEGRCPLMLTECPACKGLVRLGEKERHLEHECPERSLSCRHCRAPCCGADVKAHHEVCPKFPLTCDGCGKKKIPREKFQDHVKTCGKCRVPCRFHAIGCLETVEGEKQQEHEVQWLREHLAMLLSSVLEAKPLLGDQSHAGSELLQRCESLEKKTATFENIVCVLNREVERVAMTAEACSRQHRLDQDKIEALSSKVQQLERSIGLKDLAMADLEQKVLEMEASTYDGVFIWKISDFARKRQEAVAGRIPAIFSPAFYTSRYGYKMCLRIYLNGDGTGRGTHLSLFFVVMKGPNDALLRWPFNQKVTLMLLDQNNREHVIDAFRPDVTSSSFQRPVNDMNIASGCPLFCPVSKMEAKNSYVRDDAIFIKAIVDLTGL
Regarding B8, the “Color test” value in assay [3] is 10 min.

B9: intracellular domain of the p55 TNF receptor (receptor, UniProt P19438 235-455, looked up)
chain: RYQRWKSKLYSIVCGKSTPEKEGELEGTTTKPLAPNPSFSPTPGFTPTLGFSPVPSSTFTSSSTYTPGDCPNFAAPRREVAPPYQGADPILATALASDPIPNPLQKWEDSAHKPQSLDTDDPATLYAVVENVPPLRWKEFVRRLGLSDHEIDRLELQNGRCLREAQYSMLATWRRRTPRREATLELLGRVLRDMDLLGCLEDIEEALCGPAALPPAPSLLR
notes: domain: intracellular domain; Two-hybrid construct; also called p55-IC
Turning to B9, the binding result in assay [1] and in assay [4] was “no binding” throughout.

B10: RIP (other, UniProt Q13546 1-671, looked up)
chain: MQPDMSLNVIKMKSSDFLESAELDSGGFGKVSLCFHRTQGLMIMKTVYKGPNCIEHNEALLEEAKMMNRLRHSRVVKLLGVIIEEGKYSLVMEYMEKGNLMHVLKAEMSTPLSVKGRIILEIIEGMCYLHGKGVIHKDLKPENILVDNDFHIKIADLGLASFKMWSKLNNEEHNELREVDGTAKKNGGTLYYMAPEHLNDVNAKPTEKSDVYSFAVVLWAIFANKEPYENAICEQQLIMCIKSGNRPDVDDITEYCPREIISLMKLCWEANPEARPTFPGIEEKFRPFYLSQLEESVEEDVKSLKKEYSNENAVVKRMQSLQLDCVAVPSSRSNSATEQPGSLHSSQGLGMGPVEESWFAPSLEHPQEENEPSLQSKLQDEANYHLYGSRMDRQTKQQPRQNVAYNREEERRRRVSHDPFAQQRPYENFQNTEGKGTAYSSAASHGNAVHQPSGLTSQPQVLYQNNGLYSSHGFGTRPLDPGTAGPRVWYRPIPSHMPSLHNIPVPETNYLGNTPTMPFSSLPPTDESIKYTIYNSTGIQIGAYNYMEIGGTSSSLLDSTNTNFKEEPAAKYQAIFDNTTSLTDKHLDPIRENLGKHWKNCARKLGFTQSQIDEIDHDYERDGLKEKVYQMLQKWVMREGIKGATVGKLAQALHQCSRIDLLSSLIYVSQN
notes: Two-hybrid construct
As to B10, the binding result in assay [1] is “no binding”.

B11: construct of the N-terminal part of the TRAF2 molecule, amino-acids 1 to 221 (two-hybrid bait) (other)
chain: MAAASVTPPGSLELLQPGFSKTLLGTKLEAKYLCSACRNVLRRPFQAQCGHRYCSFCLASILSSGPQNCAACVHEGIYEEGISILESSSAFPDNAARREVESLPAVCPSDGCTWKGTLKEYESCHEGRCPLMLTECPACKGLVRLGEKERHLEHECPERSLSCRHCRAPCCGADVKAHHEVCPKFPLTCDGCGKKKIPREKFQDHVKTCGKCRVPCRFHAI
notes: Includes the Ring finger and zinc finger motifs; served as bait in two hybrid tests (fusion partner not spelled out for this construct); also called TRAF2 1-221
For B11, in assay [5], the binding result is reported as “no binding”.

B12: Lymphotoxin beta receptor cDNA clones picked from the human B-cell library (two-hybrid prey, GAL4 activation domain fusion) (receptor, UniProt P36941 249-435, looked up, not shown: large carriers)
chain: KSHPSLCRKLGSLLKRRPQGEGPNPVAGSWEPPKAHPYFPDLVQPLLPISGDVSPVSTGLPAAPVLEAGVPQQQSPLDLTREPQLEPGEQSQVAHGTNGIHVTGGSMTITGNIYIYNGPVLGGPPGPGDLPATPEPPYPIPEEGDPGPPGLSTPHQEDGKAWHLAETEHCGATPSNRGPRNQFITHD
On to B12, for which the “Color test” value in assay [3] amounted to 10 min.

B13: intracellular domain of the CD40 receptor (receptor, UniProt P25942 216-277, looked up)
chain: KKVAKKPTNKAPHPKQEPQEINFPDDLPGSNTAAPVQETLHGCQPVTQEDGKESRISVQERQ
notes: as for B1
B13: the binding result in assay [1] is on record as “no binding”.

For the origin of these results see US7485456 (YEDA RESEARCH AND DEVELOPMENT, dated 2009).
